This note sets out measurements from US7645449B2, “Sensitizing cells for apoptosis by selectively blocking cytokines” (priority 2003, dated 2010).

Common to all, as to type: cell-based, human
Assay [1] concerns LNCaP prostate cancer cells. The assay can be described thus: MTS viability of LNCaP cells: chemotherapy- and anti-CD95-induced apoptosis. The protocol: (§1) Human LNCAP prostate cancer cell line and human MDA-MB-231 breast cancer cell line were obtained from the American Type Culture Collection (ATCC, Manassas, Va.). Human RT112 bladder carcinoma cell line was kindly provided by Dr. M. Cippitelli (Regina Elena Cancer Institute, Rome, Italy). Cells were grown in RPMI 1640 (Life Technologies Inc., Grand Island, N.Y.) containing 10% heat inactivated fetal bovine serum supplemented with L-Glutamine 2 mM and 100 units/ml Penicillin-Streptomycin. Cells were kept in 5% CO2 atmosphere and routinely passaged when 80-85% confluent. […]
(§2) Cell viability was determined using the CellTiter 96® AQueous One Solution Cell Proliferation Assay (Promega, Madison, Wis.), according to the manufacturer's instructions. The assay is based on reduction of 3-(4,5-dimethylthiazol-2-yl)-5-(3-carboxymethoxyphenyl)-2-(4-sulfophenyl)-2H-tetrazolium, inner salt (MTS) to a colored formazan product that is measured spectrophotometrically. […] After 3 hours of incubation at 37° C. with the MTS reagent, the plates were read on a Multilabel Counter (Victor2, Wallac, Perkin-Ehmer Inc., Norwalk, Conn.) and dye absorbance was measured at 490 nm.
(§3) The percentage of apoptotic cells was derived from the percentage of viable cells that was directly calculated from the values of the MTS assay.

For a further assay, the system named is normal thyrocytes. Put plainly: Cytokine protection of normal thyrocytes from chemotherapy-induced apoptosis. Particulars: 48 h pre-treatment, rhIL-4 20 ng/ml or rhIL-10 40 ng/ml, then drugs for 12 h. The protocol:
Thyroid cell purification and culture. Thyroid tissues from normal, PTC, FTC and UTC were digested for 2 hours with collagenase (1.5 mg/ml) (Gibco BRL, Grand Island, N.Y.) and hyaluronidase (20 μg/ml) (Sigma Chemical Co., St. Louis, Mo.) in DMEM. Thyrocytes were purified from the digested tissues by hematopoietic cell depletion with anti-CD45-coupled beads (Dynal, Wirral Merseyside, U.K.) and 12 hours of flask adherence, which allowed removal of other cells. After additional 12 hours of culture, thyroid cells were allowed to grow in monolayer for the immunocytochemistry or detached with trypsin+EDTA following exposure to cytokines or chemotherapeutic agents for functional and protein analyses. […]
Cell death quantitation. Apoptotic events of neoplastic thyrocytes were evaluated by DNA staining and flow cytometry analysis. […] The percentage of hypodiploid nuclei was evaluated as previously described. […] The number of viable cells was detected by CellTiter Aqueous Assay Kit (Promega Corporation, WI, USA) adding 20 μl of solution reagent directly to culture wells, incubating for 1 hours at 37° C. and recording absorbance at 490 nm. […]

Assay [2] concerns MDA-MB-231 breast cancer cells. Put plainly: MTS viability of MDA-MB-231 cells: chemotherapy- and anti-CD95-induced apoptosis. The protocol:
as §1, §2, §3

Assay [3] relates to cFlip/FLAME-1 in MDA-MB-231 cells. The assay can be described thus: Immunoblot of Bcl-XL and cFlip/FLAME-1 in MDA-MB-231 cells. Particulars: following IL-4 treatment. On the procedure:
The observation that prostate and breast tumor cells treated with IL-4 display a reduced sensitivity to death induced by CD95 and chemotherapeutic drugs led us to investigate whether this cytokine would influence the expression of apoptosis regulatory genes. […] Therefore, IL-4-mediated increased survival in bladder, prostate and breast cancer cells is associated with upregulation of anti-apoptotic proteins.
Cell pellets were washed twice with cold PBS and lysed on ice for 30 minutes with 1% NP40 lysis buffer (20 mM Tris-HCl pH 7.2, 200 mM NaCl, 1% NP40) in the presence of 1 mM phenylmethylsulphonyl fluoride (PMSF) and 2 μg/ml each of aprotinin, leupeptin and pepstatin. Cell debris was removed by centrifugation at 13,000 rpm for 10 minutes at 4° C. Lysate concentration was determined using the Bio-Rad protein assay (Bio-Rad Laboratories, Richmond, Calif.). Aliquots of cell extracts containing 30 μg of total protein were resolved on 10% or 12% SDS-PAGE and transferred to a Hybond-C extra nitrocellulose membrane (Amersham Pharmacia Biotech, Piscataway, N.J.). […]
(In general: In western blotting, separated proteins are transferred to a membrane and probed.)

Setting [4] is: cytokine pretreatment, 30 ng/ml anti-CD95 agonistic antibody.

B1: IL-4: human recombinant IL-4 (protein, UniProt P05112 25-153, looked up)
Interleukin-4: HKCDITLQEIIKTLNSLTEQKTLCTELTVTDIFAASKNTTEKETFCRAATVLRQFYSHHEKDTRCLGATAQQFHRHKQLIRFLKRLDRNLWGLAGLNSCPVKEANQSTLENFLERLKTIMREKYSKCSS
As for B1, in assay [1] (setting [4]), the “anti-CD95-induced apoptosis of LNCaP cells” value was “greatly reduced anti-CD95-induced apoptosis”. In assay [1] (two days cytokine pretreatment (20 ng/ml), 300 ng/ml cisplatin or 1 μM vincristine), the “drug-induced death of LNCaP cells” value is “significantly protected from drug-induced death”. The “prevention of death of normal thyrocytes exposed to cisplatinum, doxorubicin and taxol” value with normal thyrocytes was “drastically prevented death”. Further, in assay [2] (setting [4]), the “anti-CD95-induced apoptosis of MDA-MB-231 cells” value is listed as “greatly reduced anti-CD95-induced apoptosis”. Moreover, in assay [2] (two days cytokine pretreatment (20 ng/ml), 300 ng/ml cisplatin or 5 μM daunorubicin), the “drug-induced death of MDA-MB-231 cells” value is “significantly protected from drug-induced death”. Besides, the “cFlip/FLAME-1 level in MDA-MB-231 cells” value in assay [3] is “only a modest increase”.
